Reference: patent US20080221021A1, “Novel Corticotropin-Releasing Factor Receptor 1 (Crfr1) Agonist” (Max-Planck-Gesellschaft Zur Forderung Der, priority 2004, published 2008)
Entries after “also recorded” stand apart in the source; their conditions may differ. Where no end group is shown, it is not given here.

Columns and labels:
rCRFBP = target: T1, rCRFBP (Rattus norvegicus, UniProt P24388); experiment: Competition binding scintillation proximity assay, rCRFBP; settings: binding analysis, in words
T1 construct: His6 (C); made in house; host or cells: HEK 293 cells, stably transfected
T1 sequence (P24388 25-322): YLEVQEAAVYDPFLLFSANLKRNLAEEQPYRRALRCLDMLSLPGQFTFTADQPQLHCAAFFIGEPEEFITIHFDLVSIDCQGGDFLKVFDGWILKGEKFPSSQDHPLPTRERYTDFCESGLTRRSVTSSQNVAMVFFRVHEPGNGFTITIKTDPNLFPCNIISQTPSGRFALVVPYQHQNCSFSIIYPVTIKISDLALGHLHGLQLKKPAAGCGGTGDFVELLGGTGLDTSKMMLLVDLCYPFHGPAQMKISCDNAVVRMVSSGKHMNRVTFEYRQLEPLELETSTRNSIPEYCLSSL
Protocol: (§1) Crude membrane fractions were prepared from human embryonic kidney (HEK) 293 cells stably expressing either cloned rat CRFR1α(rCRFR1) or mouse CRFR2β (mCRFR2β) as described (20). Rat CRFBP (rCRFBP) was produced in HEK 293 cells stably transfected with cDNA coding for rCRFBP C-terminally fused with a His6 sequence as described (36). The scintillation proximity assays (SPA) for binding analysis of CRFR and CRFBP have been already described in detail (21, 22). For competition binding assays of rCRFR1 and rCRFBP, [^125I-Tyr^0]h/rCRF was used as radiolabeled peptide, whereas [^125I-Tyr^0]Svg was employed for mCRFR2β.

C57BL/6J mice = experiment: Forced swim test, i.c.v. injection; assay type: in vivo, mouse
Protocol: Nine-week old male C57BL/6J (Centre D'Elevage Janvier, Sultzfeld, France) were individually housed in macrolon cages according to the recommendations of the Society for Laboratory Animal Science (Germany). All experiments were carried out in accordance with the European Council Directive (86/609/EEC) with the permission of the Animal Protection Law enforced by the District Government of Braunschweig, State of Lower Saxony, Germany, which is in full agreement with the APA ethical guidelines. All efforts were made to minimize animal suffering. The number of mice per group was 9-11.
All peptides were dissolved in aCSF except for the CRFR2-selective antagonist antisauvagine-30 (aSvg-30) (20) that was initially dissolved in 10 mM aqueous acetic acid and diluted with the same volume of two-fold concentrated aCSF. The final pH of the peptide solutions was 7.4. The exact peptide concentration of the injection solutions was determined by amino acid analysis with a Beckman HPLC analyzer system 6300. Total hydrolysis of the peptides was carried out in the presence of 1 nmol norvaline as internal standard with 6 M HCl for 24 h at 100° C.
For the forced swim test (FST), C57BL/6J mice cannulated in the lateral ventricles were subjected to swim sessions in individual glass cylinders (height 39 cm, diameter 21.7 cm) containing water, 15-cm deep, at 23-25° C. On day 1, all animals were placed in the cylinder for a preswim session of 15 min. On the test day 24 h later (day 2), the mice were subjected to a testswim session for 6 min. The water was changed between subjects. All testswim sessions were recorded by a video camera positioned directly above the cylinder. A component observer blind to treatment scored the videotapes. The behavioral measure scored was the duration of immobility, defined as time spent still or only using righting movements to keep the head over water. An increase in immobility time was interpreted as an increase of depression-like behavior. In all behavioral experiments, the cannula placement was confirmed for each mouse by histological examination of the brains after methylene blue injection (23). The behavioral data are expressed as mean±SEM, and were analysed using a two- and one-way ANOVA, with Bonferri/Dunn test applied, post hoc, for individual between-group comparisons at the p<0.05 level of significance.

mCRFR2β [1] = target: T2, mCRFR2β (Mus musculus, UniProt Q60748); experiment: Agonist-induced intracellular cAMP accumulation in HEK 293 cells producing mCRFR2β; assay type: cell-based; settings: in words
T2 construct: expressed in transfected cells
T2 sequence (Q60748 1-431 isoform Q60748-2): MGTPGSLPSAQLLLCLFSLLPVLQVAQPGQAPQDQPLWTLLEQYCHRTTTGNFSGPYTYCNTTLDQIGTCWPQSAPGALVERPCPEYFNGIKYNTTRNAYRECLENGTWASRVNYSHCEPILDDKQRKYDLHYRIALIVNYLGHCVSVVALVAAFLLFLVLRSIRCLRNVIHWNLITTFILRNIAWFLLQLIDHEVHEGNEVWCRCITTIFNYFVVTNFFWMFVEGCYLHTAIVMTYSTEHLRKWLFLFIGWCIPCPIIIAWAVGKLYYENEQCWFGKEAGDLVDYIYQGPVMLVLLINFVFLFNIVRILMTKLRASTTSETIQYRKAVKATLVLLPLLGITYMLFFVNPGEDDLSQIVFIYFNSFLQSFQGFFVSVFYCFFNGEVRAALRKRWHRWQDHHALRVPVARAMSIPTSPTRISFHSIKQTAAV
Protocol: The biological potency of cortagine and OCRF was evaluated by the determination of the EC50 values for agonist-induced intracellular accumulation of cAMP in HEK 293 cells producing either rCRFR1 or mCRFR2β.
The HEK 293 cells were plated into 24 well cell culture plates and stimulated as described (21) using increasing concentrations of the agonists under investigation. Intracellular cAMP was measured with the Biotrak™ cAMP [^125I] SPA system (Amersham Pharmacia Biotech) according to the manufacturer's product manual.

mCRFR2β [2] = target: T2, mCRFR2β; experiment: Competition binding scintillation proximity assay, mCRFR2β membranes
Protocol: as §1

[3] = Isoelectric point by isoelectric focusing; assay type: physicochemical; settings: IEF, pH range 3-10
Protocol: After dissolving the peptides in artificial cerebrospinal fluid (aCSF; 124 mM NaCl, 26.4 mM NaHCO3, 10 mM glucose, 3.3 mM KCl, 2.5 mM CaCl2 , 2.4 mM MgSO4 , 1.2 mM KH2PO4) at pH=7.4, the maximum solubility cmax was determined by amino acid analysis as described (21). The isoelectric point of the peptides was determined by isoelectric focusing (IEF) as described (21) with a Bio-Rad IEF cell system using Bio-Rad IEF strips in the pH range 3-10.

With “[Glu^21, Ala^40] [Svg^1-12]x[h/rCRF^14-30]x[Svg^30-40] (XGPPISIDLSLELLREVLEMERAEQLAQQAANNRLLLDTA; X not resolved here; ends and bridges not checked; also: Glx at position 1 not given here (Gln/Glu/pGlu)) [cortagine]” the “affinity to CRFBP” value (rCRFBP) was “negligible; also recorded: does not display any detectable affinity”, the “affinity to CRFBP” value (rCRFBP; listed as compound 9) was “completely abolished” and the “immobility time during the testswim session 24 h later (day 2)” value (C57BL/6J mice; 300 ng i.c.v. 30 min before preswim (day 1)) was “significantly reduced immobility time in comparison to oCRF-injected mice; also recorded: decrease of the immobility lime; also recorded: significant decrease”. For the same substance, the “immobility time during the preswim session” value (C57BL/6J mice; 300 ng i.c.v. 30 min before preswim (day 1), vs aCSF) was “significantly decreased the immobility time”, the “immobility time during the testswim session” value (C57BL/6J mice; 300 ng i.c.v. 30 min before testswim (day 2), vs aCSF) was “significantly decreased the immobility time” and the “floating time in the FST” value (C57BL/6J mice; mice) was “reduced significantly”. The “biological potency at mCRFR2β compared with rCRFR1” value (mCRFR2β [1]) was “about one to two orders of magnitude lower”, the “affinity for CRFR2” value (mCRFR2β [2]; binding analysis, in words) was “negligible” and the “change in affinity for CRFR2 in comparison to parent peptide” value (mCRFR2β [2]; compound 8 vs compound 6, compound 9 vs compound 8) was “no significant change”. For the same substance, the “isoelectric point pI” value [3] was 4.8.
